Results on 125 sequences are retold here after the supplement of paper PMC9112550, “Optimization of the antimicrobial peptide Bac7 by deep mutational scanning” (BMC Biology, 2022).
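Further: peptides expressed intracellularly from a pBAD plasmid library in pooled LB shake-flask culture, induced with 0.3% L-arabinose, DNA abundance read by NGS, three biological replicates, DESeq2 with apeglm shrinkage.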

The data set concerns Escherichia coli TOP10. As to the kind of experiment: shrunken log2 fold change of peptide-encoding DNA abundance (4.5 h post-induction vs induction); higher = less antimicrobial activity (less host growth inhibition). The conditions noted are these: time post-induction: 4.5 h; library: site-saturation at positions 5, 18, 19, 20.
RRIRQRPPRLPRPRPRPNIYPRP: the “shrunken log2 fold change” value is -0.153.

As for RRIRYRPPRLPRPRPRPAEEPRP, the “shrunken log2 fold change” value was 0.0567. The result for RRIRPRPPRLPRPRPRPVPEPRP reads 0.0758. The same measure for RRIRKRPPRLPRPRPRPTGQPRP: 0.84.

With RRIRKRPPRLPRPRPRPRSTPRP, the “shrunken log2 fold change” value was determined as 0.177. Take RRIRWRPPRLPRPRPRPEPLPRP: the “shrunken log2 fold change” value stood at 0.417. Regarding RRIRSRPPRLPRPRPRPESSPRP, the “shrunken log2 fold change” value was 0.00287. The same measure for RRIRRRPPRLPRPRPRPYPSPRP: -0.305; for RRIRPRPPRLPRPRPRPGHHPRP: 0.0565; for RRIRVRPPRLPRPRPRPSTDPRP: -0.0464. The result for RRIRVRPPRLPRPRPRPRSRPRP reads 0.227; that for RRIRNRPPRLPRPRPRPCIQPRP, 0.00396; that for RRIRPRPPRLPRPRPRPATSPRP, 0.358.

Turning to RRIRPRPPRLPRPRPRPMWPPRP, the “shrunken log2 fold change” value amounted to 0.213. The result for RRIRWRPPRLPRPRPRPKELPRP reads 0.501; that for RRIRPRPPRLPRPRPRPWLSPRP, -0.119; that for RRIRWRPPRLPRPRPRPSIKPRP, -0.419. The result for RRIRNRPPRLPRPRPRPEENPRP reads -0.00776.

Regarding RRIRFRPPRLPRPRPRPSDDPRP, the “shrunken log2 fold change” value was -0.106.

As to RRIRERPPRLPRPRPRPWNIPRP, the “shrunken log2 fold change” value was -0.308.

Consider RRIRARPPRLPRPRPRPCQDPRP, for which the “shrunken log2 fold change” value is -0.163.

Regarding RRIRYRPPRLPRPRPRPVTLPRP, the “shrunken log2 fold change” value is -0.713. The same measure for RRIRRRPPRLPRPRPRPNTAPRP: 0.0812. The same measure for RRIRHRPPRLPRPRPRPYKGPRP: -0.33. The result for RRIRERPPRLPRPRPRPSVRPRP reads -0.148. Turning to RRIRMRPPRLPRPRPRPYYKPRP, the “shrunken log2 fold change” value was -0.611. For RRIRDRPPRLPRPRPRPFPPPRP, the “shrunken log2 fold change” value was -0.113. The result for RRIRHRPPRLPRPRPRPMSDPRP reads 0.00234.

As to RRIRVRPPRLPRPRPRPSTCPRP, the “shrunken log2 fold change” value is -0.325. The result for RRIRNRPPRLPRPRPRPYMIPRP reads 0.0323; that for RRIRNRPPRLPRPRPRPFFCPRP, 0.118; that for RRIRYRPPRLPRPRPRPGRKPRP, -0.155. The same measure for RRIRKRPPRLPRPRPRPCERPRP: 0.019.

Consider RRIRFRPPRLPRPRPRPQHDPRP, for which the “shrunken log2 fold change” value was -0.394.

Turning to RRIRPRPPRLPRPRPRPPFRPRP, the “shrunken log2 fold change” value turned out to be 0.529. The result for RRIRGRPPRLPRPRPRPVDHPRP reads 0.193; that for RRIRGRPPRLPRPRPRPCHYPRP, 0.0219; that for RRIRSRPPRLPRPRPRPFQWPRP, 0.319. The result for RRIRARPPRLPRPRPRPYNGPRP reads -0.0341; that for RRIRCRPPRLPRPRPRPVRYPRP, 0.0829; that for RRIRTRPPRLPRPRPRPLYNPRP, -0.715. The result for RRIRNRPPRLPRPRPRPRKIPRP reads 0.39. For RRIRVRPPRLPRPRPRPGQHPRP, the “shrunken log2 fold change” value amounted to 0.0795. In the case of RRIRGRPPRLPRPRPRPRWNPRP, the “shrunken log2 fold change” value was found to be 0.423.

RRIRWRPPRLPRPRPRPIHCPRP: the “shrunken log2 fold change” value was 0.0948. Consider RRIRSRPPRLPRPRPRPCGMPRP, for which the “shrunken log2 fold change” value is -0.0447.

As to RRIRFRPPRLPRPRPRPFFEPRP, the “shrunken log2 fold change” value was determined as 0.0992.

With RRIRERPPRLPRPRPRPMRMPRP, the “shrunken log2 fold change” value is -0.0542. The same measure for RRIRARPPRLPRPRPRPTYNPRP: -0.121; for RRIRVRPPRLPRPRPRPDFHPRP: -0.208. The same measure for RRIRQRPPRLPRPRPRPFHKPRP: -0.0921; for RRIRARPPRLPRPRPRPIFNPRP: 0.0119; for RRIRYRPPRLPRPRPRPQHLPRP: -0.262.

For RRIRGRPPRLPRPRPRPPDMPRP, the “shrunken log2 fold change” value worked out at 0.879.

In the case of RRIRRRPPRLPRPRPRPTQYPRP, the “shrunken log2 fold change” value is 0.571.

For the sequence RRIRSRPPRLPRPRPRPEHIPRP, the “shrunken log2 fold change” value was 0.0843.

Turning to RRIRDRPPRLPRPRPRPGNYPRP, the “shrunken log2 fold change” value was -0.0159. The same measure for RRIRTRPPRLPRPRPRPFFSPRP: -0.135. The same measure for RRIRKRPPRLPRPRPRPEITPRP: 2.03; for RRIRPRPPRLPRPRPRPSIIPRP: -0.634. As to RRIRCRPPRLPRPRPRPARQPRP, the “shrunken log2 fold change” value is 0.0993. For RRIRVRPPRLPRPRPRPAEEPRP, the “shrunken log2 fold change” value came to 0.113. The result for RRIRQRPPRLPRPRPRPWFWPRP reads 0.00186; that for RRIRKRPPRLPRPRPRPKYKPRP, -0.19; that for RRIRPRPPRLPRPRPRPKHGPRP, 0.127. The same measure for RRIRFRPPRLPRPRPRPRPLPRP: 0.406. The same measure for RRIRARPPRLPRPRPRPKRNPRP: 0.487; for RRIRYRPPRLPRPRPRPVHHPRP: -0.211. On to RRIRYRPPRLPRPRPRPHRKPRP, for which the “shrunken log2 fold change” value is -0.501. The result for RRIRYRPPRLPRPRPRPISTPRP reads -0.0632; that for RRIRHRPPRLPRPRPRPLPCPRP, -0.0645. Take RRIRLRPPRLPRPRPRPMAMPRP: the “shrunken log2 fold change” value was found to be 0.0591. Take RRIRSRPPRLPRPRPRPAVEPRP: the “shrunken log2 fold change” value stood at 0.39. The same measure for RRIRLRPPRLPRPRPRPANAPRP: 0.0811.

RRIRRRPPRLPRPRPRPHTQPRP: the “shrunken log2 fold change” value came out at 0.573.

Take RRIRWRPPRLPRPRPRPYWSPRP: the “shrunken log2 fold change” value was -0.295. As for RRIRTRPPRLPRPRPRPVIPPRP, the “shrunken log2 fold change” value is -0.133. The same measure for RRIRCRPPRLPRPRPRPSRHPRP: -0.33; for RRIRCRPPRLPRPRPRPNPCPRP: -0.209. The result for RRIRIRPPRLPRPRPRPDKGPRP reads 0.0101; that for RRIRRRPPRLPRPRPRPMPTPRP, 0.178. The result for RRIRNRPPRLPRPRPRPTAVPRP reads 0.495; that for RRIRKRPPRLPRPRPRPLSQPRP, 0.028; that for RRIRKRPPRLPRPRPRPESWPRP, 1.02.

As to RRIRGRPPRLPRPRPRPKKTPRP, the “shrunken log2 fold change” value came to 0.181. The same measure for RRIRMRPPRLPRPRPRPMSCPRP: 0.0466; for RRIRNRPPRLPRPRPRPLTRPRP: 0.0454. RRIRERPPRLPRPRPRPDQTPRP: the “shrunken log2 fold change” value is -0.00664. The same measure for RRIRNRPPRLPRPRPRPEHSPRP: 0.0507.

For RRIRMRPPRLPRPRPRPTSRPRP, the “shrunken log2 fold change” value was 0.385. The result for RRIRTRPPRLPRPRPRPMCDPRP reads 0.0157. The same measure for RRIRLRPPRLPRPRPRPLQDPRP: 0.0629.

As for RRIRPRPPRLPRPRPRPAPNPRP, the “shrunken log2 fold change” value was 1.16. The result for RRIRQRPPRLPRPRPRPFKMPRP reads -0.217. The result for RRIRNRPPRLPRPRPRPPRSPRP reads 0.446. The same measure for RRIRNRPPRLPRPRPRPNNLPRP: -0.202; for RRIRPRPPRLPRPRPRPFMWPRP: -0.168. Consider RRIRWRPPRLPRPRPRPRAGPRP, for which the “shrunken log2 fold change” value amounted to 0.673.

Turning to RRIRARPPRLPRPRPRPSFLPRP, the “shrunken log2 fold change” value is -0.338. The same measure for RRIRWRPPRLPRPRPRPPVRPRP: 0.108; for RRIRHRPPRLPRPRPRPWENPRP: 0.0621. Consider RRIRLRPPRLPRPRPRPMIKPRP, for which the “shrunken log2 fold change” value is 0.0349. The same measure for RRIRLRPPRLPRPRPRPTVPPRP: -0.0925. Consider RRIRIRPPRLPRPRPRPSKNPRP, for which the “shrunken log2 fold change” value is -0.76.

With RRIRERPPRLPRPRPRPKEGPRP, the “shrunken log2 fold change” value was -0.129.

On to RRIRYRPPRLPRPRPRPGKIPRP, for which the “shrunken log2 fold change” value was -0.524. Turning to RRIRERPPRLPRPRPRPVMSPRP, the “shrunken log2 fold change” value amounted to 0.0484. With RRIRSRPPRLPRPRPRPEMMPRP, the “shrunken log2 fold change” value was found to be 0.681. The result for RRIRWRPPRLPRPRPRPKSAPRP reads 0.606; that for RRIRRRPPRLPRPRPRPFYEPRP, -0.0293; that for RRIRLRPPRLPRPRPRPLRAPRP, 0.709. The same measure for RRIRSRPPRLPRPRPRPGCWPRP: 0.593; for RRIRSRPPRLPRPRPRPWWPPRP: 0.0626; for RRIRQRPPRLPRPRPRPCAKPRP: 0.0917.

RRIRMRPPRLPRPRPRPTHHPRP: the “shrunken log2 fold change” value was 0.316.

Turning to RRIRRRPPRLPRPRPRPEVTPRP, the “shrunken log2 fold change” value was 0.0976.

With RRIRTRPPRLPRPRPRPLESPRP, the “shrunken log2 fold change” value is -0.0663. The result for RRIRTRPPRLPRPRPRPAMAPRP reads 0.392; that for RRIRPRPPRLPRPRPRPHDHPRP, 0.0287; that for RRIRNRPPRLPRPRPRPSSHPRP, -0.0939.

As to RRIRERPPRLPRPRPRPRHLPRP, the “shrunken log2 fold change” value is -0.427. In the case of RRIRERPPRLPRPRPRPYFEPRP, the “shrunken log2 fold change” value is -0.696. The result for RRIRRRPPRLPRPRPRPIEIPRP reads 0.0138. The result for RRIRIRPPRLPRPRPRPYINPRP reads -1.08; that for RRIRSRPPRLPRPRPRPLWAPRP, 0.206.
